Assay [1] concerns the target Env Du156.12 (HIV-1 (Du156.12)).
A further assay has as its target Env HxB2 (HIV-1 (HxB2)) (UniProt P04578).

Data on 2 substances can be found in paper PMC6879610.

Where only a bound is given, the exact number is not on record here.

With PGZL1 W99A IgG (antibody), the neutralisation of Du156.12 (TZM-bl), fold decrease against PGZL1 in assay [1] was more than 10 fold. For the same substance, the neutralisation of HxB2 (TZM-bl), fold decrease against PGZL1 with Env HxB2 (HIV-1 (HxB2)) was more than 10 fold.

In the case of PGZL1 F100A IgG (antibody), the neutralisation of Du156.12 (TZM-bl), fold decrease against PGZL1 in assay [1] is more than 10 fold. In the assay with Env HxB2 (HIV-1 (HxB2)), this substance had a neutralisation of HxB2 (TZM-bl), fold decrease against PGZL1 of more than 10 fold.
